Laboratory results: patent publication US9957297B2, “Template-fixed peptidomimetics as inhibitors of FPR1” (POLYPHOR AG, priority 2011, dated 2018)
*1 amine or outer side, *2 acyl side, *3 side chain or, on linkers, in order; H or OH if unused. Bridges are numbered along the chain shown (N, C = ends). [ ]: non-standard residue; d: D form. Pro(trans-4-NH2) = O=C([C@@H]1C[C@@H](N[*:3])CN1[*:1])[*:2]; Phe(4-CF3) = N[C@@H](Cc1ccc(C(F)(F)F)cc1)C(=O)O; Trp(5-OH) = N[C@@H](Cc1c[nH]c2ccc(O)cc12)C(=O)O; Pro(4S-NH2) = N[C@@H]1CN[C@H](C(=O)O)C1; d(cisHyp) = O=C(O)[C@H]1C[C@@H](O)CN1; Hyp = O=C(O)[C@@H]1C[C@@H](O)CN1; Tic = O=C(O)[C@@H]1Cc2ccccc2CN1; Pip = O=C(O)[C@@H]1CCCCN1; Dab = NCC[C@H](N)C(=O)O; Dap = NC[C@H](N)C(=O)O

Molecular target: T1, Formyl-Peptide Receptor 1 (UniProt P21462 1-350, limits assumed)
T1 sequence (looked up): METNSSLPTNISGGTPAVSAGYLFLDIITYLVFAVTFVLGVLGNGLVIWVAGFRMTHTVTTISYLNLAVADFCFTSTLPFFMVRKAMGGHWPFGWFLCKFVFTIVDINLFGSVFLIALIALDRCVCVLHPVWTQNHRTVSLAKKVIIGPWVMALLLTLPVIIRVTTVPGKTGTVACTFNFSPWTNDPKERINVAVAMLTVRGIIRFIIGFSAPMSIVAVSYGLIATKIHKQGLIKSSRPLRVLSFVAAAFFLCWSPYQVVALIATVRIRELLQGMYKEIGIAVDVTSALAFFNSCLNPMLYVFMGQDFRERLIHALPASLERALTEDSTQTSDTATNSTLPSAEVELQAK
Assay: cell-based or functional assay

B1: cyclo(-Tyr-His-Lys-Cys-His-Gly-^DPro-Phe(4CF3)-Thr-Ile-Cys-Tyr-Glu-Lys-^DPro-Pro-) (peptide)
peptide: cyclo(YHKCHG[dP][Phe(4-CF3)]TICYEK[dP]P)
modifications: disulfide 4-11
SMILES: CC[C@H](C)[C@@H]1NC(=O)[C@H]([C@@H](C)O)NC(=O)[C@H](Cc2ccc(C(F)(F)F)cc2)NC(=O)[C@H]2CCCN2C(=O)CNC(=O)[C@H](Cc2c[nH]cn2)NC(=O)[C@@H]2CSSC[C@H](NC1=O)C(=O)N[C@@H](Cc1ccc(O)cc1)C(=O)N[C@@H](CCC(=O)O)C(=O)N[C@@H](CCCCN)C(=O)N1CCC[C@@H]1C(=O)N1CCC[C@H]1C(=O)N[C@@H](Cc1ccc(O)cc1)C(=O)N[C@@H](Cc1c[nH]cn1)C(=O)N[C@@H](CCCCN)C(=O)N2
- β-Arrestin IC50: 114 nM

B2: cyclo(-Tyr-His-Ile-Cys-His-Gly-^DPro-Trp-Thr-Ile-Cys-Tyr-Glu-Lys-^DPro-Pro-) (peptide)
peptide: cyclo(YHICHG[dP]WTICYEK[dP]P)
modifications: disulfide 4-11
SMILES: CC[C@H](C)[C@@H]1NC(=O)[C@H](Cc2c[nH]cn2)NC(=O)[C@H](Cc2ccc(O)cc2)NC(=O)[C@@H]2CCCN2C(=O)[C@H]2CCCN2C(=O)[C@H](CCCCN)NC(=O)[C@H](CCC(=O)O)NC(=O)[C@H](Cc2ccc(O)cc2)NC(=O)[C@@H]2CSSC[C@H](NC1=O)C(=O)N[C@@H](Cc1c[nH]cn1)C(=O)NCC(=O)N1CCC[C@@H]1C(=O)N[C@@H](Cc1c[nH]c3ccccc13)C(=O)N[C@@H]([C@@H](C)O)C(=O)N[C@@H]([C@@H](C)CC)C(=O)N2
- β-Arrestin IC50: 50 nM

Binder: cyclo(YH[Dap]CHG[dP]WTICYEK[dP]P) (disulfide 4-11) [cyclo(-Tyr-His-Dap-Cys-His-Gly-^DPro-Trp-Thr-Ile-Cys-Tyr-Glu-Lys-^DPro-Pro-)]
- β-Arrestin IC50: 271 nM

Binder: cyclo(YH[Dab]CWG[dP]WTICYEK[dP]P) (disulfide 4-11) [cyclo(-Tyr-His-Dab-Cys-Trp-Gly-^DPro-Trp-Thr-Ile-Cys-Tyr-Glu-Lys-^DPro-Pro-)]
- β-Arrestin IC50: 93 nM

B3: cyclo(-Tyr-His-Ala-Cys-His-Gly-^DPro-Trp-Thr-Ile-Cys-Tyr-Gln-Lys-^DPro-Trp-) (peptide)
peptide: cyclo(YHACHG[dP]WTICYQK[dP]W)
modifications: disulfide 4-11
SMILES: CC[C@H](C)[C@@H]1NC(=O)[C@H]([C@@H](C)O)NC(=O)[C@H](Cc2c[nH]c3ccccc23)NC(=O)[C@H]2CCCN2C(=O)CNC(=O)[C@H](Cc2c[nH]cn2)NC(=O)[C@@H]2CSSC[C@H](NC1=O)C(=O)N[C@@H](Cc1ccc(O)cc1)C(=O)N[C@@H](CCC(N)=O)C(=O)N[C@@H](CCCCN)C(=O)N1CCC[C@@H]1C(=O)N[C@@H](Cc1c[nH]c3ccccc13)C(=O)N[C@@H](Cc1ccc(O)cc1)C(=O)N[C@@H](Cc1c[nH]cn1)C(=O)N[C@@H](C)C(=O)N2
- β-Arrestin IC50: 147 nM

Binder: cyclo(YH[Dab]CHG[dP]WTICYEK[dP]P) (disulfide 4-11) [cyclo(-Tyr-His-Dab-Cys-His-Gly-^DPro-Trp-Thr-Ile-Cys-Tyr-Glu-Lys-^DPro-Pro-)]
- β-Arrestin IC50: 290 nM

Binder: cyclo(YHKCHG[dP]WTICYEK[dP][Pro(4S-NH2)]) (disulfide 4-11) [cyclo(-Tyr-His-Lys-Cys-His-Gly-^DPro-Trp-Thr-Ile-Cys-Tyr-Glu-Lys-^DPro-Pro((4S)NH2)-)]
- β-Arrestin IC50: 530 nM

Binder: cyclo(YHKCHG[dP]WTICYEK[dP][Hyp]) (disulfide 4-11) [cyclo(-Tyr-His-Lys-Cys-His-Gly-^DPro-Trp-Thr-Ile-Cys-Tyr-Glu-Lys-^DPro-Pro((4R)OH)-)]
- β-Arrestin IC50: 376 nM

B4: cyclo(-Tyr-His-Lys-Cys-His-Gly-^DPro-Trp-Thr-Ile-Cys-Tyr-Glu-Lys-^DPro-Pro((4R)NH2)-) (peptide)
peptide: cyclo(YHKCHG[dP]WTICYEK[dP][Pro(trans-4-NH2)])
modifications: disulfide 4-11
SMILES: CC[C@H](C)[C@@H]1NC(=O)[C@H]([C@@H](C)O)NC(=O)[C@H](Cc2c[nH]c3ccccc23)NC(=O)[C@H]2CCCN2C(=O)CNC(=O)[C@H](Cc2c[nH]cn2)NC(=O)[C@@H]2CSSC[C@H](NC1=O)C(=O)N[C@@H](Cc1ccc(O)cc1)C(=O)N[C@@H](CCC(=O)O)C(=O)N[C@@H](CCCCN)C(=O)N1CCC[C@@H]1C(=O)N1C[C@H](N)C[C@H]1C(=O)N[C@@H](Cc1ccc(O)cc1)C(=O)N[C@@H](Cc1c[nH]cn1)C(=O)N[C@@H](CCCCN)C(=O)N2
- β-Arrestin IC50: 82 nM

Binder: cyclo(YHKCHG[d(cisHyp)]WTICYEK[dP]P) (disulfide 4-11) [cyclo(-Tyr-His-Lys-Cys-His-Gly-^DPro((4R)OH)-Trp-Thr-Ile-Cys-Tyr-Glu-Lys-^DPro-Pro-)]
- β-Arrestin IC50: 485 nM

Binder: cyclo(YHKC[Trp(5-OH)]G[dP]WTICYEK[dP]P) (disulfide 4-11) [cyclo(-Tyr-His-Lys-Cys-Trp(5OH)-Gly-^DPro-Trp-Thr-Ile-Cys-Tyr-Glu-Lys-^DPro-Pro-)]
- β-Arrestin IC50: 13 nM

B5: cyclo(-Tyr-His-Lys-Cys-His-Gly-^DPro-Trp-Thr-Ile-Cys-Tyr-Glu-Lys-^DPro-Lys-) (peptide)
peptide: cyclo(YHKCHG[dP]WTICYEK[dP]K)
modifications: disulfide 4-11
SMILES: CC[C@H](C)[C@@H]1NC(=O)[C@H]([C@@H](C)O)NC(=O)[C@H](Cc2c[nH]c3ccccc23)NC(=O)[C@H]2CCCN2C(=O)CNC(=O)[C@H](Cc2c[nH]cn2)NC(=O)[C@@H]2CSSC[C@H](NC1=O)C(=O)N[C@@H](Cc1ccc(O)cc1)C(=O)N[C@@H](CCC(=O)O)C(=O)N[C@@H](CCCCN)C(=O)N1CCC[C@@H]1C(=O)N[C@@H](CCCCN)C(=O)N[C@@H](Cc1ccc(O)cc1)C(=O)N[C@@H](Cc1c[nH]cn1)C(=O)N[C@@H](CCCCN)C(=O)N2
- β-Arrestin IC50: 109 nM

B6: cyclo(-Tyr-His-Lys-Cys-Trp-Gly-^DPro-Trp-Thr-Ile-Cys-Tyr-Glu-Lys-^DPro-Lys-) (peptide)
peptide: cyclo(YHKCWG[dP]WTICYEK[dP]K)
modifications: disulfide 4-11
SMILES: CC[C@H](C)[C@@H]1NC(=O)[C@H]([C@@H](C)O)NC(=O)[C@H](Cc2c[nH]c3ccccc23)NC(=O)[C@H]2CCCN2C(=O)CNC(=O)[C@H](Cc2c[nH]c3ccccc23)NC(=O)[C@@H]2CSSC[C@H](NC1=O)C(=O)N[C@@H](Cc1ccc(O)cc1)C(=O)N[C@@H](CCC(=O)O)C(=O)N[C@@H](CCCCN)C(=O)N1CCC[C@@H]1C(=O)N[C@@H](CCCCN)C(=O)N[C@@H](Cc1ccc(O)cc1)C(=O)N[C@@H](Cc1c[nH]cn1)C(=O)N[C@@H](CCCCN)C(=O)N2
- β-Arrestin IC50: 54 nM

B7: cyclo(-Tyr-His-Lys-Cys-His-Gly-^DPro-Trp-Thr-Ile-Cys-Tyr-Glu-Lys-^DPro-Dab-) (peptide)
peptide: cyclo(YHKCHG[dP]WTICYEK[dP][Dab])
modifications: disulfide 4-11
SMILES: CC[C@H](C)[C@@H]1NC(=O)[C@H]([C@@H](C)O)NC(=O)[C@H](Cc2c[nH]c3ccccc23)NC(=O)[C@H]2CCCN2C(=O)CNC(=O)[C@H](Cc2c[nH]cn2)NC(=O)[C@@H]2CSSC[C@H](NC1=O)C(=O)N[C@@H](Cc1ccc(O)cc1)C(=O)N[C@@H](CCC(=O)O)C(=O)N[C@@H](CCCCN)C(=O)N1CCC[C@@H]1C(=O)N[C@@H](CCN)C(=O)N[C@@H](Cc1ccc(O)cc1)C(=O)N[C@@H](Cc1c[nH]cn1)C(=O)N[C@@H](CCCCN)C(=O)N2
- β-Arrestin IC50: 189 nM

B8: cyclo(-Tyr-His-Ala-Cys-Trp-Gly-^DPro-Trp-Thr-Ile-Cys-Tyr-Gln-Lys-^DPro-Ala-) (peptide)
peptide: cyclo(YHACWG[dP]WTICYQK[dP]A)
modifications: disulfide 4-11
SMILES: CC[C@H](C)[C@@H]1NC(=O)[C@H]([C@@H](C)O)NC(=O)[C@H](Cc2c[nH]c3ccccc23)NC(=O)[C@H]2CCCN2C(=O)CNC(=O)[C@H](Cc2c[nH]c3ccccc23)NC(=O)[C@@H]2CSSC[C@H](NC1=O)C(=O)N[C@@H](Cc1ccc(O)cc1)C(=O)N[C@@H](CCC(N)=O)C(=O)N[C@@H](CCCCN)C(=O)N1CCC[C@@H]1C(=O)N[C@@H](C)C(=O)N[C@@H](Cc1ccc(O)cc1)C(=O)N[C@@H](Cc1c[nH]cn1)C(=O)N[C@@H](C)C(=O)N2
- β-Arrestin IC50: 188 nM

Binder: cyclo(YHKCHG[dP]WTICYEK[dP][Pip]) (disulfide 4-11) [cyclo(-Tyr-His-Lys-Cys-His-Gly-^DPro-Trp-Thr-Ile-Cys-Tyr-Glu-Lys-^DPro-Pip-)]
- β-Arrestin IC50: 161 nM

Binder: cyclo(YHKCHG[dP]WTICYEK[dP][Tic]) (disulfide 4-11) [cyclo(-Tyr-His-Lys-Cys-His-Gly-^DPro-Trp-Thr-Ile-Cys-Tyr-Glu-Lys-^DPro-Tic-)]
- β-Arrestin IC50: 115 nM
